Binding signal data for 24 molecules are collected here from PMC11417369, “DNA sequence and chromatin differentiate sequence-specific transcription factor binding in the human malaria parasite Plasmodium falciparum”.

T1: SIP2 D1 (Plasmodium falciparum, UniProt C6KSN9 177-235)
T1 sequence: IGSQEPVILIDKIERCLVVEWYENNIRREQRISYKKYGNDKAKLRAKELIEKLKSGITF

T2: HDP1 homeodomain-like (Plasmodium falciparum, UniProt Q8IKH4 2990-3078)
T2 sequence: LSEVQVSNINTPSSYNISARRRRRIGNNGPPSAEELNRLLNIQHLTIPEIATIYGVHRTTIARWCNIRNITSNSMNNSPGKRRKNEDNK

B1: GTGCAC_negctrl_site367 (dsDNA)
DNA 1: TTTTAAAAAAAAAAAAAATAAGATAAAATTAAATAA
DNA 2: TTATTTAATTTTATCTTATTTTTTTTTTTTTTAAAA
B2: GTGCAC_negctrl_site227 (dsDNA)
DNA 1: ATAGAATAAATTTTGTCATTTATTCCTTATATATAA
DNA 2: TTATATATAAGGAATAAATGACAAAATTTATTCTAT
B3: GTGCAC_site10459 (dsDNA)
DNA 1: TTATAAATGTGCGTAGTGCATAAACAAAAAAAAAAT
DNA 2: ATTTTTTTTTTGTTTATGCACTACGCACATTTATAA
B4: GTGCAC_negctrl_site723 (dsDNA)
DNA 1: AGCATTTTAAAAGAAAAAAAAAAAAAAAAAAAAATA
DNA 2: TATTTTTTTTTTTTTTTTTTTTTCTTTTAAAATGCT
B5: GTGCAC_negctrl_site667 (dsDNA)
DNA 1: GTAAGAATATTTATAAATGTATAATTTGTATTATTT
DNA 2: AAATAATACAAATTATACATTTATAAATATTCTTAC
B6: GTGCAC_negctrl_site321 (dsDNA)
DNA 1: ACAAAAAATTAATGAGAAATGGAATAATAAGTTATA
DNA 2: TATAACTTATTATTCCATTTCTCATTAATTTTTTGT
B7: GTGCAC_negctrl_site150 (dsDNA)
DNA 1: TTGTAATAAAGAATTAAAAAAAAATATATACAGGTA
DNA 2: TACCTGTATATATTTTTTTTTAATTCTTTATTACAA
B8: GTGCAC_negctrl_site553 (dsDNA)
DNA 1: GGAAAATCTAATCATTTAATATTTATTTATCTAATT
DNA 2: AATTAGATAAATAAATATTAAATGATTAGATTTTCC
B9: GTGCAC_negctrl_site285 (dsDNA)
DNA 1: AAAATATTATTACAGAAACAAAAAGAAAAATATATA
DNA 2: TATATATTTTTCTTTTTGTTTCTGTAATAATATTTT
B10: GTGCAC_negctrl_site189 (dsDNA)
DNA 1: AACAAATATGATTTTTTATATATTTTTAAATTTGGT
DNA 2: ACCAAATTTAAAAATATATAAAAAATCATATTTGTT
B11: GTGCAC_negctrl_site475 (dsDNA)
DNA 1: AGAAATAATATTATTCAAGTATTTATTTAATTTTCA
DNA 2: TGAAAATTAAATAAATACTTGAATAATATTATTTCT
B12: GTGCAC_negctrl_site656 (dsDNA)
DNA 1: ATTATTTATTTATTTTTTTTTTTTTTCTCTTTTCCT
DNA 2: AGGAAAAGAGAAAAAAAAAAAAAATAAATAAATAAT
B13: GTGCAC_negctrl_site641 (dsDNA)
DNA 1: TTTTCTTGACCTATTATTCTTCTCATAGTATAATAT
DNA 2: ATATTATACTATGAGAAGAATAATAGGTCAAGAAAA
B14: GTGCAC_negctrl_site472 (dsDNA)
DNA 1: TATTTAAAATAATAACAAAATTAACATAAATATATA
DNA 2: TATATATTTATGTTAATTTTGTTATTATTTTAAATA
B15: GTGCAC_negctrl_site601 (dsDNA)
DNA 1: TAAGCCAAGGGATAAATAAAATAACAAAATGAAATC
DNA 2: GATTTCATTTTGTTATTTTATTTATCCCTTGGCTTA
B16: GTGCAC_negctrl_site301 (dsDNA)
DNA 1: TTTATTTATTTATATTTTTTTATATAATTTATATAT
DNA 2: ATATATAAATTATATAAAAAAATATAAATAAATAAA
B17: GTGCAC_negctrl_site245 (dsDNA)
DNA 1: TTTTATATCTAGTTTATATTTCTTAAATAAATAAAT
DNA 2: ATTTATTTATTTAAGAAATATAAACTAGATATAAAA
B18: GTGCAC_negctrl_site633 (dsDNA)
DNA 1: AAAAAAATAAAAAATATATAAATAATTAATACATGT
DNA 2: ACATGTATTAATTATTTATATATTTTTTATTTTTTT
B19: GTGCAC_negctrl_site155 (dsDNA)
DNA 1: AAATTTTTTAATTTTTCTCATTTAATTTAAAAATTA
DNA 2: TAATTTTTAAATTAAATGAGAAAAATTAAAAAATTT
B20: GTGCAC_negctrl_site39 (dsDNA)
DNA 1: AAACAGCATGGTATACCTATAAAATATATATACTAA
DNA 2: TTAGTATATATATTTTATAGGTATACCATGCTGTTT
B21: GTGCAC_negctrl_site715 (dsDNA)
DNA 1: TTTTTTCTTTTATGTGAAATGTAATATTGTTATATA
DNA 2: TATATAACAATATTACATTTCACATAAAAGAAAAAA
B22: GTGCAC_negctrl_site528 (dsDNA)
DNA 1: AAACATCTTTACAACGTCCCTCCTTTTTTATGTACC
DNA 2: GGTACATAAAAAAGGAGGGACGTTGTAAAGATGTTT
B23: GTGCAC_negctrl_site519 (dsDNA)
DNA 1: AAAATACATATATATATATATAATATTGTTGTTAAA
DNA 2: TTTAACAACAATATTATATATATATATATGTATTTT
B24: GTGCAC_negctrl_site122 (dsDNA)
DNA 1: ATCTTAGTTGAAATATAGAATTTATAATAAAAGTTA
DNA 2: TAACTTTTATTATAAATTCTATATTTCAACTAAGAT

The target of one series is T1, SIP2 D1. As to the kind of experiment: gcPBM; about 25 ug protein; PBS, 1% milk, 0.2 mg/ml BSA, salmon testes DNA, 0.03% Triton X-100. The conditions noted are these: tags: N-terminal GST (pGEX-4T-1), kept; label: surface-attached array probe.
B1: the binding signal was 6.6 ln median PBM intensity, better of two orientations.
B2: the binding signal is 6.84 ln median PBM intensity, better of two orientations.
Still for that read-out and setting: in the case of B3 it was 8.72 ln median PBM intensity, better of two orientations; in that of B4, 6.8 ln median PBM intensity, better of two orientations.
Still for that read-out and setting: next, B5: 6.8 ln median PBM intensity, better of two orientations; B6: 6.83 ln median PBM intensity, better of two orientations; B7: 6.9 ln median PBM intensity, better of two orientations.
The same measure, in the same setting: next, B8: 6.68 ln median PBM intensity, better of two orientations; B9: 6.76 ln median PBM intensity, better of two orientations; B10: 6.75 ln median PBM intensity, better of two orientations.
Regarding B11, the binding signal was 6.53 ln median PBM intensity, better of two orientations.
Take B12: the binding signal was 6.87 ln median PBM intensity, better of two orientations.

The next series has as its target AP2-I D3 (Plasmodium falciparum, UniProt Q8IJW6 910-1027). The description is as above. The conditions noted are these: tags: N-terminal GST (pGEX-4T-1), kept; label: surface-attached array probe.
On to B1, for which the binding signal is 6.89 ln median PBM intensity, better of two orientations.
Still for that read-out and setting: in the case of B2 it was 7.14 ln median PBM intensity, better of two orientations; in that of B3, 11.5 ln median PBM intensity, better of two orientations; in that of B13, 7.08 ln median PBM intensity, better of two orientations.
For B14, the binding signal is 7.1 ln median PBM intensity, better of two orientations.
On the same count and under the same terms, next, B15: 7.02 ln median PBM intensity, better of two orientations; B16: 7.13 ln median PBM intensity, better of two orientations; B4: 7.05 ln median PBM intensity, better of two orientations.
Same read-out and setting: next, B5: 7.22 ln median PBM intensity, better of two orientations; B6: 7.2 ln median PBM intensity, better of two orientations; B7: 7.17 ln median PBM intensity, better of two orientations.
Still for that read-out and setting: in the case of B17 it was 7.05 ln median PBM intensity, better of two orientations.
For B18, the binding signal was 7.14 ln median PBM intensity, better of two orientations.
Same read-out and setting: next, B19: 7.03 ln median PBM intensity, better of two orientations.
Still for that read-out and setting: next, B20: 7.07 ln median PBM intensity, better of two orientations.
Still for that read-out and setting: in the case of B21 it was 7.2 ln median PBM intensity, better of two orientations.
For the molecule B22, the binding signal is 7.28 ln median PBM intensity, better of two orientations.
The same measure, in the same setting: in the case of B23 it was 7.2 ln median PBM intensity, better of two orientations.
Same read-out and setting: next, B8: 6.76 ln median PBM intensity, better of two orientations; B9: 7.1 ln median PBM intensity, better of two orientations.
The same measure, in the same setting: next, B10: 7.09 ln median PBM intensity, better of two orientations; B11: 6.75 ln median PBM intensity, better of two orientations.
For B24, the binding signal was 7.07 ln median PBM intensity, better of two orientations.
The same measure, in the same setting: next, B12: 6.88 ln median PBM intensity, better of two orientations.

The next series deals with T2, HDP1 homeodomain-like. The series is described as above. The conditions noted are these: tags: N-terminal GST (pGEX-4T-1), kept; chain copies: 2; label: surface-attached array probe.
Take B1: the binding signal was 6.01 ln median PBM intensity, better of two orientations.
Still for that read-out and setting: next, B2: 6.37 ln median PBM intensity, better of two orientations; B3: 10.2 ln median PBM intensity, better of two orientations.
Still for that read-out and setting: next, B13: 6.18 ln median PBM intensity, better of two orientations; B14: 6.24 ln median PBM intensity, better of two orientations; B15: 6.27 ln median PBM intensity, better of two orientations.
On the same count and under the same terms, in the case of B16 it was 6.28 ln median PBM intensity, better of two orientations.
Consider B4, for which the binding signal was 5.84 ln median PBM intensity, better of two orientations.
For B5, the binding signal is 6.29 ln median PBM intensity, better of two orientations.
In the case of B6, the binding signal was 6.32 ln median PBM intensity, better of two orientations.
On the same count and under the same terms, next, B7: 6.31 ln median PBM intensity, better of two orientations; B17: 6.07 ln median PBM intensity, better of two orientations; B18: 6.32 ln median PBM intensity, better of two orientations.
As to B19, the binding signal was 5.71 ln median PBM intensity, better of two orientations.
Still for that read-out and setting: next, B20: 6.18 ln median PBM intensity, better of two orientations; B21: 6.24 ln median PBM intensity, better of two orientations; B22: 6.32 ln median PBM intensity, better of two orientations.
The same measure, in the same setting: in the case of B23 it was 6.31 ln median PBM intensity, better of two orientations; in that of B8, 5.78 ln median PBM intensity, better of two orientations; in that of B9, 6.37 ln median PBM intensity, better of two orientations.
On the same count and under the same terms, in the case of B10 it was 5.9 ln median PBM intensity, better of two orientations; in that of B11, 5.92 ln median PBM intensity, better of two orientations; in that of B24, 6.01 ln median PBM intensity, better of two orientations.
For the molecule B12, the binding signal was 6.27 ln median PBM intensity, better of two orientations.
